These results are taken from a protein production outcome set (Wang et al. 2014).

The data set can be described thus: label from the status in PepcDB records.
Consider “MAIVLLVLHVCTGLRGSPVSGRVRMAVDSGIYLAPCSNNDAQEHLKRTVINGVDRDDYGQYTNVGFGDSVSIWGVKGGNESHWQDIDAGDYLFFYTGDETYSQVAEVLATDQNEGLAEHLWPGFEDTWEFIIYLNEPIPVNIDSNEIADYAGYKQNYILGFQSLRGSAVDEINDEYGSIEGYINANRTDGNHIQTSGGSQDPDEGDDSVVDEVLDEADRDEEAYANIARQLEEVGQVVFYGPPGTGKTYNAQQFARWWLHNLQSEPRESQVRSVTFHPSYTYEDFIEGLTANATENSVSYDIKPGKFKAICEDARVAYQETGPNEEPPRYVLLIDEINRGNLAQIFGETITLLEEDKRGTLHVDLAHSGGSFTIPPNLYVIGTMNTADRSVALVDAALRRRFRFIDFPPDYGVARSRFGFDTEYDLTSAARGERSDLEQLQALSIQAVEQLNETIIELPDLGKGKQIGHSYLLVDPDDEQALVDAWRYEILPLLEEYFYGQLSRIRQELFNQNGDSLVDWEREQIKDFDPETLRESLQAIVNAGLEHHHHHH”, for which the protein production result is reported as “failed”. As to “MTVTSPRIATILLLIVCFIWGVEFVPIDLAIEVMPTNTFNAIRFAVATLSMLPLLWFVQKKNKGNSKPIDYVLLIRSGMLLGFFLFIGFYTQTEGMRFTTVTNAGFITGLCVPLVPVLGFLIFRNVVPKSVWIGVVTATAGLYMLTIGDKLVFNKGDILVLICAFGFAGHIIMTDRFVDNLPIIPLSIVQIFAVSIYSTIAIFIGPDPVFYYQDAEPVSWYQQLFTPLMIFAILVSGILGTAYAFWAQSVSQTLLKPHKVALIFAAEPVFACIAAWVFLDEVLGEKGMIGAGLILAGMLVSELGDRKKQPELRALDQTAALK”, the protein production entry is given as “failed”. “MEKLSAREKPDINVAEAWEQYWNKTLVNATPVLWDANVERAVVVDLPRFQSFFDTELPLIDFACGNGTQTKFLSQFFPRVIGFDVSKTALEMASKENTAANISYRLLDGLVPEQAAQIHSEIGDANIYMRTGFHHIPVEKRELLAQSLRTLLGKQGVMYLIELGTGCIEFFNSLLEKYGKLPYELSLVMEHGIRPGIFTTEDIELYFPDFEILSQGESLFQSIHKLPDGNYATPPAFWAVIKRH”: the protein production result was “failed”.

Regarding “QVSDEDVMLMIRQGAKKGVFESVEYEMISRIFRMSDKRASALMTPRNEIEWLDLERPDEELVARIKASGRSRFPVAKGSLDELQGVVRSLDLVNFSLSSKGSIREAIRASMKPPLFVPESVPAFHVLELFKKNRAHMALVIDEHGSVQGAITLTDVLESIVGDVPADDMEGD”, the protein production result is “failed”.

Consider “MIASVASTTKDRLEIVKAFRNKEITILIATSILERGVTFPNVDVFVINSEHPNFTKSALIQMAGRVGRSPERPTGLVSFFHYGKSKAMCQAVREIKKMNQLGCFSLEHHHHHH”, for which the protein production result was “failed”. Turning to “VWRPKSVSRDDVMVTEYGAVTSERPLPAGTTYSATSVTPPDDPEVLRTSGRDYPADIESRYTGVPASTSAQVGPFTDRLTEDSDSPYQTAATIEQWLEANKNYSLNVSQPPEDDVASEFIFQMDKGYCEYFATSMVVMLRSQDIPARYVVGYSTGERTGQNQYTVRGMNAHAWVEVYFEGVGWVKFDPTPGQ”, the protein production entry is on record as “failed”. In the case of “MKKKLDRREAVRSEKKTLPWRKKRSSRGCCWRRRVATAVGEEESRRLMEKTRRDGEEEEVTSDGGSWNGKKKLYRRRRRYLGEETDRLAAEAGEEELRRLLENKRRGREEEERRRRNQIEEEERRRRRK”, the protein production entry was “failed”. For “MRGAESLVTLNHKILRPCRKLLIRITKSCPRRHNRHLKLKKASSSSSTASGNKVTKVVALFFLSFHKKKQKKEKMKRLNELRSFSHAVNDQKKKAPKQESSKKVFPSRLTMSWLGQGKGNNNNTQEVPQEHDARRDSTSAFIP”, the protein production result is on record as “failed”. Turning to “MKITFISGQEVSLGTSFLLFSKKIVMNELNQPLLAIIKNVAKTKNLSIEEVVFCLKTALEQAYKKHLNFVNVEVNINFDKGIINVEQLFNVVSDENEDYDDFLEIPLQAANKINSSLQLGDVLRKPIPLKNISSDLINKMIAIFNQKISETNFKAVMSEFSSEVGEVIEAKVEDIDTNKEGGLKGYIINLETTKGYISKRELSKGERLEIGKKYLFVIKEIQRQASLWPITLSRSDTRLLQFLLTSNTPEIENGTIVIKKIERSPGVKSKIAVISNDPAVDPVAAILGPKGEKIRGISEEFNGEIIDIVFWNEDKLKFLINAILPAEVIGYNILQDDERDTSIEVVVPANQIANVFGFKGVNIRLISNLTGWNSVDVYSEKDASEANIKFTRLSFEPEGLFGIKKRREKIISNDATDKVFYTSKDNVIDDEIIVDLAKDLMVDNKQKQPEQVAKQVVEKSQLEKQVTPKEKEKVQPKAKVHSNSHSKKPAKPNQIFSITVDASDKNLKKDQVDNNQTNPQTKQTFDSFDDL”, the protein production entry was “failed”.
